T1: mouse MSR1 extracellular domain expressed with a N-terminal nonahistidine tag (His9-mMSR1); R&D Systems, Cat … (mouse, UniProt P30204 79-458)
T1 construct: extracellular domain; not shown: N-terminal nonahistidine tag
T1 sequence (looked up): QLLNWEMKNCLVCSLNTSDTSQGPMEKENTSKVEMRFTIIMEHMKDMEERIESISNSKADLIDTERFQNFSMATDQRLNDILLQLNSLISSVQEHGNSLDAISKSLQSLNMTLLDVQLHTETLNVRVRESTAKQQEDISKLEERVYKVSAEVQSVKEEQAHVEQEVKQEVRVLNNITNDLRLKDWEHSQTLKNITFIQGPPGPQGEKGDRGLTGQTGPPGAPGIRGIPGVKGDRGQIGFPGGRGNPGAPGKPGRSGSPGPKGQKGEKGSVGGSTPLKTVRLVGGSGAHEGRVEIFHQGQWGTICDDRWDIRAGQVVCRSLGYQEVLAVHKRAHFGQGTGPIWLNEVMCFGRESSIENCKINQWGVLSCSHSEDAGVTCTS

T2: human MSR1 extracellular domain expressed with a N-terminal nonahistidine tag (His9-hMSR1); R&D Systems, Cat … (human, UniProt P21757 77-451)
T2 construct: extracellular domain; also called His-hMSR1; 9xHis-hMSR1; not shown: N-terminal nonahistidine tag
T2 sequence (looked up): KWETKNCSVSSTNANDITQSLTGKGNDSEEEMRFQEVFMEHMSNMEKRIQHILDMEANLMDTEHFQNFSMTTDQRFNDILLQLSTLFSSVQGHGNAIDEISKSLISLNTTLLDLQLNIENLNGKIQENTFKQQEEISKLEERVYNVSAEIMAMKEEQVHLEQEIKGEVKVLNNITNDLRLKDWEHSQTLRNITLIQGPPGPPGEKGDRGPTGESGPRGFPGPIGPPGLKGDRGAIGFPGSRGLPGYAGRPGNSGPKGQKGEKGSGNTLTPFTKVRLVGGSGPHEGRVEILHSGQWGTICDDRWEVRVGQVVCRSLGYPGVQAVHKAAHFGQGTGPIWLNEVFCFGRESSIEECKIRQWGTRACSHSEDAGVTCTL

T3: monkey MSR1 extracellular domain expressed with a N-terminal hexahistidine-myc-myc tag (HMM-mfMSR1) (monkey (Macaca fascicularis))
T3 chain: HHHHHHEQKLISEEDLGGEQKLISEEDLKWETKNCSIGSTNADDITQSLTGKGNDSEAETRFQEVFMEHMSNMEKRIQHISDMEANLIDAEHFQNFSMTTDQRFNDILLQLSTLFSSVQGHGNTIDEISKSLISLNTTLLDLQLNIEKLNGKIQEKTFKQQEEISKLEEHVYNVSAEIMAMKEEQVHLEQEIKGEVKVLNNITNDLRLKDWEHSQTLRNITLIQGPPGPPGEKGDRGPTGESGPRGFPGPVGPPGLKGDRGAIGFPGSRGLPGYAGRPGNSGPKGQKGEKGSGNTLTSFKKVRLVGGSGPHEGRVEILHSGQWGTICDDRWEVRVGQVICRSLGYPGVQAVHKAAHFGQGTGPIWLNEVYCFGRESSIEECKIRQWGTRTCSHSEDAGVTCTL

T4: full length human MSR1 with a C-terminal Myc tag, on HEK293.Myc.hMSR1 cells (human, UniProt P21757 1-451)
T4 construct: whole, on cells; stably expressed on engineered HEK293 cells; not shown: C-terminal Myc tag
T4 sequence (looked up): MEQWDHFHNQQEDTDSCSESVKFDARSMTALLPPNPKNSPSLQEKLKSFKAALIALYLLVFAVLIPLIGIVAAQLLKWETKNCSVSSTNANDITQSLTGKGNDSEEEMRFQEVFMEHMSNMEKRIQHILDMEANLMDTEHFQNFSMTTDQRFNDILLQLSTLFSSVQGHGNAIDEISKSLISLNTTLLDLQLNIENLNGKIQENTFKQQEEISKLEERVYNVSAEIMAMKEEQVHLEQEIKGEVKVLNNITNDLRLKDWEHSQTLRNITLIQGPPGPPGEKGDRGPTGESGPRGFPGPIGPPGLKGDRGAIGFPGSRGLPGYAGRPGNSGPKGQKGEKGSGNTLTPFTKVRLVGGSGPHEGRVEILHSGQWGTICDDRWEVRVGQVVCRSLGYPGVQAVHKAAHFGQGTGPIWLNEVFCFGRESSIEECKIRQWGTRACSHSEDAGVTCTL

T5: full length monkey MSR1 on HEK293.mfMSR1 cells (Macaca fascicularis, UniProt A0A2K5UWE2 1-451)
T5 construct: whole, on cells
T5 sequence: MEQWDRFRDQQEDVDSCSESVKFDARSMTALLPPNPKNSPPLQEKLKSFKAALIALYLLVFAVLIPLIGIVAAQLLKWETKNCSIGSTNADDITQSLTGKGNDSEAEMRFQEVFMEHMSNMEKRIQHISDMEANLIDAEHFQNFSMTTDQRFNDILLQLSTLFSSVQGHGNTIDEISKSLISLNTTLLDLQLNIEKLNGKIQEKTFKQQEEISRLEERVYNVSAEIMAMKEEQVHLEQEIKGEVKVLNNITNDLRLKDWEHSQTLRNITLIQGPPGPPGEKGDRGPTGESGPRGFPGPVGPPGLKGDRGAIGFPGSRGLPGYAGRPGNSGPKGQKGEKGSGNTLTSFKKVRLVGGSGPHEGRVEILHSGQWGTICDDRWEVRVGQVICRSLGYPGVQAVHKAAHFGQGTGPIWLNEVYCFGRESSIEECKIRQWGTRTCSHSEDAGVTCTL

T6: mouse MSR1 on RAW264.7 cells (mouse, UniProt P30204 1-458)
T6 construct: whole, on cells; also called MSR1 positive RAW264.7 cells
T6 sequence (looked up): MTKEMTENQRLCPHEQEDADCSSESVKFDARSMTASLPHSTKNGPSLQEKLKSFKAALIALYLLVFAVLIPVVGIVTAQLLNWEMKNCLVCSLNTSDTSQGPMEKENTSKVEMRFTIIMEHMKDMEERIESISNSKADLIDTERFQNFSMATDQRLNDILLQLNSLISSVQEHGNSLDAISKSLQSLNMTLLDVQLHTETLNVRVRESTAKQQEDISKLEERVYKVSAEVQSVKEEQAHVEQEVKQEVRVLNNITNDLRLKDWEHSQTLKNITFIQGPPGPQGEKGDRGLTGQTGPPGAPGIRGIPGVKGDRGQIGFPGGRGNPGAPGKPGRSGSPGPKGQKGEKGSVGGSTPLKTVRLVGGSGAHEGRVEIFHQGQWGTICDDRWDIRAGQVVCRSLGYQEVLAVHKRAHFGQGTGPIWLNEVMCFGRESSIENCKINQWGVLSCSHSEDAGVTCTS


Assays:
[1] = target: T1, mouse MSR1 extracellular domain …; assay: BLI Octet, 25 C, antibody captured
[2] = target: T2, human MSR1 extracellular domain …; assay: BLI Octet, 25 C, antibody captured
Experimental: (§1) Binding affinities and kinetic constants of human anti-MSR1 antibodies for different MSR1 reagents were determined using a real time, label-free bio-layer interferometry assay on an OCTET® HTX biosensor platform (Pall FortéBio Corp., Menlo Park, Calif.). The experiment was performed at 25° C. in 10 mM HEPES, 150 mM NaCl, 3 mM EDTA, 0.05% v/v Surfactant Tween-20, and 1 mg/mL BSA, pH7.4 (HBS-EBT) buffer with the plate shaking at the speed of 1000 rpm. […] The anti-MSR1 monoclonal antibodies were captured by dipping either anti-human Fc (AHC) or anti-mouse Fc (AMC) Octet biosensors in wells containing 5 pg/mL or 10 pg/mL of anti-MSR1 monoclonal antibody for 45-90 seconds. […] The binding of different MSR1 reagents to the captured anti-MSR1 monoclonal antibody was measured for 4 minutes and the dissociation of monoclonal antibody bound MSR1 reagent was monitored for 8-10 minutes in HBS-EBT buffer.
(§2) The association rate (kₐ) and dissociation rate (kd) were determined by fitting the real-time binding sensorgrams to a 1:1 binding model with mass transport limitation using Scrubber 2.0c curve-fitting software. Binding dissociation equilibrium constant (KD) and dissociative half-life (t½) were calculated from the kinetic rates as:

[3] = target: T3, monkey MSR1 extracellular domain …; assay: BLI Octet, 25 C, antibody captured
Experimental: as §1, §2

[4] = target: T2, human MSR1 extracellular domain …; assay: SPR Biacore, 37 C, antibody captured
Experimental: (§3) Binding affinities and kinetic constants of human anti-MSR1 antibodies for different MSR1 reagents were determined by real-time surface plasmon resonance (Biacore 4000). All binding studies were performed in 10 mM HEPES, 150 mM NaCl, 3 mM EDTA, and 0.05% v/v Surfactant Tween-20, pH 7.4 (HBS-ET) running buffer at 25° C. and 37° C.
as §2

[5] = target: T3, monkey MSR1 extracellular domain …; assay: SPR Biacore, 37 C, antibody captured
Experimental: as §3, §2

[6] = target: T3, monkey MSR1 extracellular domain …; assay: SPR Biacore, 25 C, antibody captured;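 also: rates from 1:1 fit with mass transport limitation of real-time sensorgrams, HEPES-buffered saline with EDTA and Tween-20 at pH 7.4, KD and t½ derived from the kinetic rates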
[7] = target: T2, human MSR1 extracellular domain …; assay: SPR Biacore, 25 C, antibody captured; kd fixed, no dissociation seen
Experimental: as §3, §2

[8] = target: T4, full length human MSR1 with a …; assay: ECL cell binding, HEK293.Myc.hMSR1 cells, 11 nM
Experimental: (§4) All cells were washed once with 1×PBS with Ca²⁺/Mg²⁺ and counted with a Cellometer™ Auto T4 cell counter (Nexcelom Bioscience). Approximately 1.0×10⁴ cells were seeded separately onto 96-well carbon electrode plates [MULTI-ARRAY high bind plate, Meso Scale Diagnostics] and incubated for 1 hour at 37° C. Non-specific binding sites were then blocked by 2% BSA (w/v) in PBS with Ca²⁺/Mg²⁺ for 1 hour at room temperature. THP-1 cells were pre-incubated for 0.5 hours at room temperature in sample dilution buffer with: 1) 1 mg/mL Fc receptor block reagents to block Fc gamma receptors on THP-1 cell surface [whole molecule human IgG (Jackson Immunoresearch, Cat #009-000-003) for wells being tested with anti-MSR1-mFc antibodies or 2) whole molecule mlgG (Jackson Immunoresearch, Cat #015-000-003) for wells being tested with anti-MSR1-hFc antibodies. Antibody binding on HEK293.Myc.hMSR1, HEK293.mfMSR1 and HEK293 cells was tested without Fc receptor block reagents. […] Plates were then washed to remove unbound antibodies an AquaMax2000 plate washer with a cell washing head (MDS Analytical Technologies). […] Plates were washed and developed with Read Buffer (Meso Scale Diagnostics, Cat # R92TD-2) according to manufacturer's recommended procedure and luminescent signals were recorded with a SECTOR Imager 600 (Meso Scale Diagnostics). Luminescence intensity, measured in relative light units (RLU), was recorded to indicate the binding intensity of each antibody at the range of concentrations.

[9] = target: T4, full length human MSR1 with a …; assay: cell-based or functional assay
[10] = target: T5, full length monkey MSR1 on …; assay: ECL cell binding, HEK293.mfMSR1 cells, 11 nM
Experimental: as §4

[11] = target: T6, mouse MSR1 on RAW264.7 cells; assay: flow cytometry, RAW264.7 cells
Experimental: To block binding to Fc receptors, RAW264.7 cells were incubated for 30 minutes at 4° C. with 500 pg/mL mouse IgG (Jackson ImmunoResearch, Cat #015-000-003) diluted in staining buffer, while B16F10.9 cells remained in staining buffer. […] The signal to noise (S/N) was determined by calculating the ratio of the anti-MSR1 antibodies or the control antibodies MFI to the unstained sample MFI (Table 11).

Binder | binding result [1] | Kd [2] [nM] | koff [2] [s⁻¹] | kon [2] [M⁻¹ s⁻¹] | t½ [2] [h] | Kd [3] [nM] | koff [3] [s⁻¹] | kon [3] [M⁻¹ s⁻¹] | t½ [3] [h] | further results
H2aM25695N (antibody, V domains shown, Human variable domains with mouse IgG2a Fc; tied by the numerical identifier) VH: QVQLQESGPGLVKPSETLSLTCTVTGGSISRNYWSWIRQPPGKGLEWIGYIYYSGSINYNPSLKSRVTISVDMSKNQFSLKLNSVTAADTAVYYCARDRWNWKYGMDVWGQGTTVIVSS VL: EIVLTQSPGTLSLSPGERATLSCRASQTVRNSYLAWYHQKPGQAPRLLIYGASSRATGIPDRFSGSGSGTDFTLTISRLEPEDFAVYYCQQYGSSYWTFGQGTKMEIKR | no binding (tested: 100 nM) | 1.46 | 0.000527 | 360000 | 0.367 | 1.83 | 0.000571 | 312000 | 0.333 | 
H2aM21228N (antibody, V domains shown, Human variable domains with mouse IgG2a Fc; tied by the numerical identifier) VH: VQLVESGGGLVQPGGSLRLSCAASGFTFSDHYMDWVRQAPGKGLEWVGRTRNKANSHTTEYAASVSGRFTISRDDSKNSLYLQMNSLKTEDTAVYYCTRAGIIGTLFDYWGQGTLVTVSS VL: not shown | no binding (tested: 100 nM) | 0.954 | 0.000116 | 122000 | 1.67 | 1.45 | 0.000146 | 100000 | 1.32 | 
H1H27754P-N297Q (antibody, V domains shown, Human IgG1 Fc with N297Q point mutation) VH: EVQLVESGGGLVQPGGSLRLSCAASGFTFRTYAMTWVRQAPGKGLDWVSAITGDGGNTYYADSVKGRFTISRDNSKNTLYLQMNSLRAEDTAIYYCAKDQRFSFALYYFDYWGQGTLVTVSS VL: DIQMTQSPSSVSASVGDRVTITCRASQGISSWLAWYQQKPGNAPKLLIYAAFSLQSGVPSRFSGSGSGTDFTLTISSLQPEDFATYYCQQANNFPWTFGQGTKVEIKR | no binding (tested: 50 nM) |  |  |  |  |  |  |  |  | Kd [4]: 0.0381 nM; koff [4]: 2.53e-05 s⁻¹; kon [4]: 663000 M⁻¹ s⁻¹; t½ [4]: 7.62 h; Kd [5]: 0.0504 nM; koff [5]: 3.53e-05 s⁻¹; kon [5]: 701000 M⁻¹ s⁻¹; t½ [5]: 5.45 h; Kd [6]: 0.075 nM; koff [6]: 1.76e-05 s⁻¹; kon [6]: 235000 M⁻¹ s⁻¹; t½ [6]: 10.9 h; Kd [7]: ≤ 0.0344 nM; koff [7]: ≤ 1e-05 s⁻¹; kon [7]: 290000 M⁻¹ s⁻¹; t½ [7]: 19.2 h
H1H27734P-N297Q (antibody, human IgG1, V domains shown, human IgG1 Fc with N297Q) VH: EVQLVESRGGLVQPGGSLRLSCAASGFTFSSYAMSWVRQAPGKGLEWVSAISGSGGSTFYADSVKGRFTISRDNSKNTVYLQMNSLRAEDTAVYYCAKALVLRFLEWLGDYWGQGTLVTVSS VL: DIQMTQSPSTLSASVGDRVTITCRASQSISSWLAWFQQKPGKAPKLLIYKASSLESGVPSRFSGSGSGTEFTLTISSLQPDDFATYYCQQYKSYWTFGQGTKVEIKR |  |  |  |  |  |  |  |  |  | ratio of binding signal (RLU) to isotype control [8]: 40 fold; % Inhibition of Dil-Oxidized LDL uptake [9]: 22%; IC50 of Dil-Oxidized LDL uptake inhibition [9]: 5.5 nM; ratio of binding signal (RLU) to isotype control [10]: 28 fold; MFI [11]: 4780 MFI; S/N (MFI over unstained MFI) [11]: 1
H2aM21235N (antibody, V domains shown, Human variable domains with mouse IgG2a Fc; tied by the numerical identifier) VH: EVQLVESGGGLVQPGGSLRLSCAASGFTFSDHYMDWVRQAPGKGLEWVGRTRNKANSYTTEYAASVSGRFTISRDDSKNSLYLQMNSLKTEDTAVYYCTRAGIIGTLFDYWGQGTLVTVSS VL: DIQMTQSPSSLSASVGDRVTITCRASQIIGRYLNWFQQKPGKVPKLLIYAASSLQRGVPSRFSGSGSGTDFTLTISSLQPEDFATYYCQQSYNTPPITFGQGTRLEIKR | no binding (tested: 100 nM) | 0.378 |  |  | 4.2 | 0.612 |  |  | 3.07 | 
H2aM21229N (antibody, V domains shown, Human variable domains with mouse IgG2a Fc) VH: EVQLVESGGGLVKPGGSLRLSCAASGFTFSRYSMNWVRQAPGKGLEWVSSISSSSSYIYYGDTVKGRFTISRDNAKKSLYLQMNSLRAEDTAVYYCVRDRGQLVLYFDYWGQGTLVTVSS VL: DIQMTQSPASLSTSIRDRVTITCRASLSISSFLNWFQQRPGKAPKLLIYVASNLQSGVPSRFSDSGSGTDFTLTISSLQPEDFATYYCQQNYSTPPITFGQGTRLEIK | no binding (tested: 100 nM) | 0.7 | 0.00021 | 300000 | 0.917 | 16.4 | 0.00222 | 135000 | 0.0833 | 
H1H27732P-N297Q (antibody, V domains shown, Human IgG1 Fc with N297Q point mutation) VH: QLQLQESGPGLVKPSETLSLTCTVSGGSISSSTYYWGWIRQPPGKGLEWIGSFYYSGSTYYNPSLKSRVTISVGTSKNQFSLKLSSVTAADTAVYFCARGGLLGRPFVIWGQGTMVTVSS VL: DIQMTQSPSSLSASVGDRVTITCRASQGIRNDLGWYQQKPGKAPKRLIYAASSLQSGVPSRFSGSGSGTEFTLTISSLQPEDFATYYCLQHNSYPLTFGGGTKVEIKR | no binding (tested: 50 nM) |  |  |  |  |  |  |  |  | Kd [4]: 0.111 nM; t½ [4]: 6.17 h; Kd [5]: 0.317 nM; t½ [5]: 1.82 h; Kd [6]: 0.248 nM; t½ [6]: 6.07 h; Kd [7]: ≤ 0.0801 nM; t½ [7]: 19.2 h

Source: patent US20190367631A1 (Regeneron, published 2019)
